Results reported in paper PMC9046454.

How the values were obtained:
[1] = target: T1, nLuc-AFF (6*-50* duplication, 6-aa linker AAGASS) (UniProt P03069 226-281); test: luminescence switching
[2] = target: T1, nLuc-AFF (6*-50* duplication, 6-aa …); test: fluorescence anisotropy
[3] = target: T1, nLuc-AFF (6*-50* duplication, 6-aa …); test: luminescence ratio L460/L520 titration
[4] = target: T1, nLuc-AFF (6*-50* duplication, 6-aa …); test: luminescence ratio L460/L520 titration; remark: listed apart in the source

T1 sequence (P03069 226-281): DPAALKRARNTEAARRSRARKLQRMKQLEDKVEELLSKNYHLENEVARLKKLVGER

Row | Binder | binding result [1] | Kd [2] | Kd [3] | Kd [4]
1 | NC duplex (non-consensus) (dsDNA) DNA 1: GTTCCAGGTTAAGAAGTGCTCTCAGGGTGGCGCGGC DNA 2: GCCGCGCCACCCTGAGAGCACTTCTTAACCTGGAAC | no binding |  |  | 
2 | AP-1 duplex (dsDNA) DNA 1: AGTGGAGATGACTCATCTCGTGC DNA 2: GCACGAGATGAGTCATCTCCACT |  | 11.6 ± 2.5 nM | 37 ± 11 nM | 14.3 ± 3.5 nM
